From PMC3515676

Assays:
Experiment in all cases: purified protein
Type in all cases: biochemical, Danio rerio
[1] = test system: C[C@H](CCC(=O)NCC(=O)O)[C@H]1CC[C@H]2[C@@H]3[C@H](O)C[C@@H]4C[C@H](O)CC[C@]4(C)[C@H]3CC[C@]12C; conditions: 14 μM PAP[35S], 50 mM Taps pH 8.5, 28 °C, pH 8.5
[2] = test system: C[C@H](CCC(=O)O)[C@H]1CC[C@H]2[C@@H]3CC[C@@H]4C[C@H](O)CC[C@]4(C)[C@H]3CC[C@]12C; conditions: 14 μM PAP[35S], 50 mM Taps pH 8.5, 28 °C, pH 8.5
[3] = test system: C[C@H](CCC(=O)O)[C@H]1CC[C@H]2[C@@H]3[C@H](O)C[C@@H]4C[C@H](O)CC[C@]4(C)[C@H]3CC[C@]12C; conditions: 14 μM PAP[35S], 50 mM Taps pH 8.5, 28 °C, pH 8.5
[4] = test system: C[C@H](CCCO)[C@H]1CC[C@H]2[C@@H]3[C@H](O)C[C@H]4C[C@H](O)CC[C@]4(C)[C@H]3C[C@H](O)[C@]12C; conditions: 14 μM PAP[35S], 50 mM Mes pH 6.0, 28 °C, pH 6.0

Work on “Zebra danio SULT3 ST2 (ZF SULT3 ST2) (Danio rerio)” yielded a Km [1] of 19.89 ± 1.32 µM, a Vmax [1] of 0.00097 µmol/min/mg and a Km [2] of 6.00 ± 0.55 µM. For the same substance, the Vmax [2] was 0.00051 µmol/min/mg, the Km [3] was 21.75 ± 2.74 µM and the Vmax [3] was 0.00075 µmol/min/mg. It also gave a Km [4] of 22.36 ± 1.47 µM and a Vmax [4] of 0.00254 µmol/min/mg.
